Patent US20160280788A1, “USE OF ANTIBODIES AGAINST ICAM-1 IN THE TREATMENT OF PATIENTS WITH RELAPSED CANCER” (BioInvent International AB, priority 2010, published 2016)
Like-named read-outs stand apart in the source and are kept apart here.

Key:
[1] = tested on: HUVEC, HMVEC or peripheral blood B cells; assay: CDC of normal ICAM-1 expressing cells; type: cell-based
Method: (§1) Target cells were harvested and incubated in RPMI medium with antibodies at 5 μg/mL or at titrated concentrations between 0.01-100 μg/mL for 60 min on ice. Cells were thereafter washed and resuspended in cold medium before dispension into flow cytometry tubes. Treatments were performed in triplicates. Human serum, normal or heat-inactivated, (Sigma, Sweden) was added to tubes and the samples were incubated for 2 h at 37° C. After completed incubation ToPo-Pro-3 was added at a final concentration of 0.3 μM and cells were analyzed for membrane permeabilization using flow cytometry.

[2] = molecular target: T1, human FcγRIIIa (Homo sapiens, UniProt P08637); assay: Biacore binding of BI-505 isotype variants to human FcγRIIIa
T1 construct: made in house; host or cells: HEK293E (transient)
Method: His-tagged human FcγRIIIa or mouse FcγRIV were expressed transient in adherent HEK293E cells, purified using Ni-NTA chromatography and characterized using SDS-PAGE and/or Biacore. Surface plasmon resonance (SPR) measurements were perfomed using a Biacore 3000 instrument. Goat α-human-F(ab)′2 F(ab)′2 fragment (Jackson laboratories) was immobilised with a CM-5 chip using a standard amine coupling protocol. IgG1 B11, Iga4 B11, or 297Q B11 were diluted to 15 and 60 μg/mL respectively and added to the surface at […] for 3 min. His tagged human FcγRIIIa or mouse FcγRIV were pre-incubated with an α-HIS antibody (R&D Systems) at a 2:1 molar ratio before addition to the chip surface, […], 1 min. After each cycle the surface was regenerated twice with glycine buffer pH 1.7.

[3] = tested on: PBMC; assay: PBMC / T cell proliferation; type: cell-based
[4] = tested on: PBMC; assay: PBMC cytokine release; type: cell-based
[5] = tested on: peripheral blood B cells; assay: PCD in normal B cells; type: cell-based; settings: resting or activated cells
Method: Target cells were seeded in 96-well culture plates at a density of 2×10^6 cells/mL culture medium. Titrated concentrations of IgG1 B11 or different negative and positive control antibodies were added to the cells, in the absence or presence of anti-human Fab fragment (Jackson ImmunoResearch) for cross-linking. The cells were then incubated for 16 hours at 37° C. in a humidified atmosphere of 5% CO2. The cells were harvested and stained for Annexin V-488/Propidium Iodide (Invitrogen, Sweden) and analysed using flow cytometer (FACS Calibur, BD Bioscience).

[6] = tested on: ARH-77 tumors; assay: Subcutaneous scid/ARH-77 xenograft, established (palpable tumor) model; settings: IgG B11 even at 0.2 mg/kg (100-fold lower dose than rituximab)
Method: Mice were anaesthetized with a mixture of sevofluran and oxygen prior to myeloma cell inoculation and 1-5×10^6 myeloma cells were then subcutaneously injected in a volume of 100 μl into the left flank. Treatment with antibodies by intraperitonial (i.p.) injections was started either the day after cell inoculation (prophylactic model) or when tumors reached a size of approximately 100 mm^3 (established model). Antibodies were administrated in PBS in a total volume of 200 μL. Treatment with PBS or isotype control was used as control. Tumors were measured with a digital calliper and the tumor volumes were calculated according to formula: width^2×length×0.52. Animals were sacrificed when the tumor sizes reached the ethical limit of 1.5 cm. Surviving mice were sacrificed after a maximum of 5 months. Blood samples collected from the vena cava were centrifuged at 2500 g for 15 min to obtain serum and the samples were stored at −20° C. Tumors were removed for immunohistochemistry, snap frozen and were kept at −85° C.

[7] = tested on: ARH-77 cells; assay: Disseminated scid/ARH-77 model of multiple myeloma; type: in vivo, scid mice; settings: i.v. on Days 7, 10, 13, 16; antibody 2 mg/kg, bortezomib 0.5 mg/kg; vs control
Method: ARH-77 cells or RPMI-8226 were injected intraveniously into the SCID mice. (FIG. 6A) ARH-77 model. Animals received intravenous injections with antibody at 2 mg/kg or bortezomib (Velcade) at 0.5 mg/kg on Days 7, 10, 13, and 16 (as indicated by arrows in the graph). (FIG. 6B) RPMI-8226-model. BI-505 or control mAb was administered i.v at 2 mg/kg, twice weekly for 8 weeks, bortezomid, at 1 mg/kg, once weekly for 8 weeks, lenalidomide p.o with 2 mg/kg for 2 cycles consisting of 5 days of treatment and 2 days of wash out, melphalan i.v at 3 mg/kg, once weekly for 8 weeks, and dexamethasone (DXH) at 6 mg/kg/inj 3 times/week for 2 consecutive weeks. There were 6-10 mice per treatment group. Statistical significance was calculated using Log-rank Graphpad Prism software and determined at ***p<0.001. (FIG. 6C) To study the ICAM-1 level on human cells, the cells from different organs were stained and gated for CD38+/mCD45−/BI-505+. Left panel indicates the percentage of BI-505 positive cells in CD38+/mCD45 population and right panel the mean fluorescent intensity of the positive cells.
The anti-myeloma effect of BI-505 was examined in a disseminated model of multiple myeloma. The early and advanced disseminated model of multiple myeloma was performed at Oncodesign, Dijon, France. Briefly: 1×10^6 (early) or 5×10^6 (advanced) ARH-77 tumor cells in 200 μL of RPMI 1640 were injected intravenously (i.v) into the caudal vein of female scid mice (D0). Tumor cell injections were performed twenty four to forty eight hours after a whole body irradiation of mice (1.8 Gy, ^60Co, INRA, BRETENNIERES). The treatment was started at D5 (RPMI-8226 model) or D7 ([…] model) except alkeran which was administered at D10. B11 or control mAb was administered i.v. at 2 mg/kg, twice weekly for 8 weeks, bortezomib, at 1 mg/kg, once weekly for 8 weeks, lenalidomide p.o with 2 mg/kg for 2 cycles consisting of 5 days of treatment and 2 days of wash out, melphalan i.v. at 3 mg/kg, once weekly for 8 weeks and dexamethasone at 6 mg/kg, injected 2 consecutive weeks.
The disseminated model of scid/ARH-77 is a well-established experimental model that resembles human multiple myeloma disease progression and disease manifestation in many respects (33). We utilized this model to further characterize IgG B11 anti-myeloma activity (FIG. 6A). Intravenous injection of irradiated scid mice with 1×10^6 ARH-77 cells was previously shown to result in their dissemination and establishment in mouse bone-marrow, and resulting osteolytic bone-lesions and hypercalcemia, and ultimately, in animal paralysis or difficulty of breathing at which time animals were immediately sacrificed. […]

[8] = tested on: ICAM-1 expressing tumor cell lines; assay: Complement-dependent cytotoxicity in tumor cell lines; type: cell-based; settings: panel of ICAM-1 expressing tumor cell lines; human serum
Method: as §1

[9] = tested on: Daudi lymphoma cells; assay: Programmed cell death (PCD) assay, Daudi; type: cell-based, human
Method: Target cells were seeded in 96-well culture plates at a density of 2×10^6 cells/mL culture medium. […] The cells were then incubated for 16 hours at 37° C. in a humidified atmosphere of 5% CO2. The cells were harvested and stained for Annexin V-488/Propidium Iodide (Invitrogen, Sweden) and analysed using flow cytometer (FACS Calibur, BD Bioscience).

[10] = tested on: F4/80 positive host effector cells in ARH-77 xenograft tissue; settings: compared to control IgG, untreated and rituximab treated mice
Method: (FIG. 7A) ARH-77 cells were injected subcutaneously into the left flank of SCID mice (n=8 per group). […] Statistical significance was calculated relative to control antibody treatment using Kruskal-Wallis Test (Nonparametric ANOVA) with Dunn's Multiple Comparisons Test. Statistical significance was considered for *p<0.05, **p<0.01, and ***p<0.001.

[11] = added in solution, resting or lipopolysaccharide pre-stimulated PBMCs
[12] = immobilised by either protocol, or in solution with or without cross-linking reagent

T1 sequence (P08637 17-254): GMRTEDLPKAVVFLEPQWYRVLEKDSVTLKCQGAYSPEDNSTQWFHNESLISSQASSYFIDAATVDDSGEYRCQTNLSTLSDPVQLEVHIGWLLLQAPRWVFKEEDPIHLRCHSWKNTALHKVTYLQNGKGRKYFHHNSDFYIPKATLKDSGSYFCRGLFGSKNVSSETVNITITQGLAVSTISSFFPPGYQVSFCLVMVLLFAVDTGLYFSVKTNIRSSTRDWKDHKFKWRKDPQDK

B1: IgG B11: fully human ICAM-1 antibody isolated from the n-CoDeR library; VH/VL sequences in FIG. 15 (SEQ ID NOs 8, 10) (antibody, V domains shown)
VH: EVQLLESGGGLVQPGGSLRLSCAASGFTFSNAWMSWVRQAPGKGLEWVAFIWYDGSNKYYADSVKGRFTISRDNSKNTLYLQMNSLRAEDTAVYYCARYSGWYFDYWGQGTLVTVSS
VL: QSVLTQPPSASGTPGQRVTISCTGSSSNIGAGYDVHWYQQLPGTAPKLLIYDNNNRPSGVPDRFSGSKSGTSASLAISGLRSEDEADYYCQSYDSSLSAWLFGGGTKLTVLG
modifications: B11 VH region; B11 VL region
Q: How did the “CDC of normal cells” value [1] turn out when B1 was run?
A: did not confer ADCC or CDC

Q: What about the “binding to human FcγRIIIa” value [2] of the same molecule?
A: bound to human FcγRIIIa

Q: What about the cell proliferation [3, 11] of the same molecule?
A: did not induce cell proliferation

Q: And the cell proliferation [3, 12]?
A: did not induce cell proliferation

Q: And the cytokine release [4, 11]?
A: did not induce or enhance cytokine release

Q: And the PBMC cytokine release [4, 12]?
A: induce PBMC cytokine release

Q: What about the “PCD induction in normal B cells” value [5] of the same molecule?
A: did not, however, induce PCD

Q: And the animal survival [6]?
A: prolonged animal survival

Q: What about the tumor growth [6] of the same molecule?
A: significantly prevented tumor growth

Q: And the animal survival [7]?
A: increased mean survival time

Q: And the “time to symptomatic disease onset” value [7]?
A: doubled

Q: And the “induction of CDC” value [8]?
A: did not induce CDC

Q: And the PCD induction ([9]; antibody immobilised by either of two coating protocols)?
A: induced programmed cell death

Q: And the PCD induction ([9]; titrated antibody with cross-linking, 16 hours)?
A: dose dependent PCD-induction

Q: What about the “influx of F4/80+ host effector cells (macrophage infiltration) in tumor tissue” value [10] of the same molecule?
A: massive influx

Q: And the “influx of F4/80+ host effector cells (macrophage infiltration) in tumor tissue” value ([10]; listed as BI-505)?
A: significantly increased
